# B1: mRNA 3'-end-processing protein YTH1 (Saccharomyces cerevisiae), Q06102 (parent)
# chain: MSLIHPDTAKYPFKFEPFLRQEYSFSLDPDRPICEFYNSREGPKSCPRGPLCPKKHVLPIFQNKIVCRHWLRGLCKKNDQCEYLHEYNLRKMPECVFFSKNGYCTQSPDCQYLHIDPASKIPKCENYEMGFCPLGSSCPRRHIKKVFCQRYMTGFCPLGKDECDMEHPQFIIPDEGSKLRIKRDDEINTRKMDEEKERRLNAIINGEV
# partner: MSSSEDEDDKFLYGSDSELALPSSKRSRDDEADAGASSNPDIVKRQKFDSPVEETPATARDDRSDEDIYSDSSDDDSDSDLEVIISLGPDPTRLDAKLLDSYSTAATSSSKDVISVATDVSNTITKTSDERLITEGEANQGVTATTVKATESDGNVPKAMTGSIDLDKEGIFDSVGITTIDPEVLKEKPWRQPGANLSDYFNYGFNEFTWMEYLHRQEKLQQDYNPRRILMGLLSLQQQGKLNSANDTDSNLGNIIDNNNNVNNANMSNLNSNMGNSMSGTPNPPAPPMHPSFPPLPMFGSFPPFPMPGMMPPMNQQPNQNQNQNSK
# Variants of: B1
# Conditions: with fip1_yeast FIP1, P45976
row,Variant,effect of a mutation on the interaction
1,G130R,decreasing interaction

# — IntAct's records for PubMed 12626716
